Results from US20240116985A1, “STAPLED PEPTIDES AND METHODS THEREOF” (priority 2020, published 2024).
Starred links: 1 amine or outer side, 2 acyl side, 3 side chain; linkers in the order of their positions; H or OH if unused. Positions of bridges follow the written chain, without caps; N, C: chain ends. Non-standard residues stand in square brackets, D forms with d. Primed or numbered codes have the meaning given here. *: point of attachment. PyrS2(3) = (S)-3-amino-1-((pent-4-en-1-yloxy)carbonyl)pyrrolidine-3-carboxylic acid, stapling residue, C=CCCCOC(=O)N1CC[C@@](N[*:1])(C(=O)[*:2])C1; PyrS2″ = (S)-3-amino-1-((pent-4-en-1-yloxy)carbonyl)pyrrolidine-3-carboxylic acid (stapling residue), C=CCCCOC(=O)N1CC[C@@](N[*:1])(C(=O)[*:2])C1; B5(4) = 2,2-bis(4-pentenyl)glycine = 2-amino-2-(pent-4-en-1-yl)hept-6-enoic acid (stitching residue), C=CCCCC(CCCC=C)(N[*:1])C(=O)[*:2]; B5(5) = 2,2-bis(4-pentenyl)glycine, 2-amino-2-(pent-4-en-1-yl)hept-6-enoic acid (stitching residue), C=CCCCC(CCCC=C)(N[*:1])C(=O)[*:2]; B5(3) = 2,2-bis(4-pentenyl)glycine (stitching residue), C=CCCCC(CCCC=C)(N[*:1])C(=O)[*:2]; B5″ = 2,2-bis(4-pentenyl)glycine, stitching residue, C=CCCCC(CCCC=C)(N[*:1])C(=O)[*:2]; Phe(2-Cl) = N[C@@H](Cc1ccccc1Cl)C(=O)O; Phe(2-OMe) = COc1ccccc1C[C@H](N)C(=O)O; 1Nal = N[C@@H](Cc1cccc2ccccc12)C(=O)O; 2Nal = N[C@@H](Cc1ccc2ccccc2c1)C(=O)O; Phe(2-F) = N[C@@H](Cc1ccccc1F)C(=O)O; Bta = N[C@@H](Cc1csc2ccccc12)C(=O)O; αAllylPro = C=CC[C@@]1(C(=O)O)CCCN1; tBuAla = CC(C)(C)C[C@H](N)C(=O)O; 3Thi = N[C@@H](Cc1ccsc1)C(=O)O; Cha = N[C@@H](CC1CCCCC1)C(=O)O; S8 = C=CCCCCCC[C@](C)(N)C(=O)O; hLeu = CC(C)CC[C@H](N)C(=O)O; Prolinol = OC[C@@H]1CCCN1*; hSer = N[C@@H](CCO)C(=O)O; Dap = NC[C@H](N)C(=O)O; Ms = CS(=O)(=O)*

Key:
[1] = target: full-length beta-Catenin (Uniprot ID P35222) (Homo sapiens (Human)) (UniProt P35222); assay: fluorescence polarization competition; displacement of 5FAM-TCF4(10-53) from full-length beta-catenin
Target sequence in this assay (P35222 whole entry, the tested form may be a part): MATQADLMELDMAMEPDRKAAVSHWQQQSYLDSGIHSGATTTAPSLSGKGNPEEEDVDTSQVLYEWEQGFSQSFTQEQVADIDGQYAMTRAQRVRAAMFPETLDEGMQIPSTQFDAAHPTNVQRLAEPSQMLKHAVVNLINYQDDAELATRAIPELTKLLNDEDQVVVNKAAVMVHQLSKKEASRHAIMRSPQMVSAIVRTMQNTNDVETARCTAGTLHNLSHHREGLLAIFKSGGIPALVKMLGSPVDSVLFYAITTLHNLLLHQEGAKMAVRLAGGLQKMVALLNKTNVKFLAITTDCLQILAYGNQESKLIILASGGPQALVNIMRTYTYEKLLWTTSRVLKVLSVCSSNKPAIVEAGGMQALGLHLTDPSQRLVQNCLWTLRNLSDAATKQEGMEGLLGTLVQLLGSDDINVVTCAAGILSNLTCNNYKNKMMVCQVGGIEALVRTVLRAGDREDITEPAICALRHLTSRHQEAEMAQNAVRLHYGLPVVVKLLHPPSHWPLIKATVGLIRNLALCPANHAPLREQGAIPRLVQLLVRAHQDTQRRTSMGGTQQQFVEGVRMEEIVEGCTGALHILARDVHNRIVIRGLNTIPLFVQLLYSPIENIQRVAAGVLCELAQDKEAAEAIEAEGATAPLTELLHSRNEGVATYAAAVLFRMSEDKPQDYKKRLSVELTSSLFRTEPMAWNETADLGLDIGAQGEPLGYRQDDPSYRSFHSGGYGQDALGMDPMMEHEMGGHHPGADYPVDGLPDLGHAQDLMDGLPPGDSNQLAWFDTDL

[2] = target: full-length beta-Catenin (Uniprot ID P35222) (Homo sapiens (Human)) (UniProt P35222); assay: fluorescence polarization competition; full-length beta-catenin + 5FAM-TCF4(10-53) probe as competitor
Target sequence in this assay (P35222 2-781 limits assumed): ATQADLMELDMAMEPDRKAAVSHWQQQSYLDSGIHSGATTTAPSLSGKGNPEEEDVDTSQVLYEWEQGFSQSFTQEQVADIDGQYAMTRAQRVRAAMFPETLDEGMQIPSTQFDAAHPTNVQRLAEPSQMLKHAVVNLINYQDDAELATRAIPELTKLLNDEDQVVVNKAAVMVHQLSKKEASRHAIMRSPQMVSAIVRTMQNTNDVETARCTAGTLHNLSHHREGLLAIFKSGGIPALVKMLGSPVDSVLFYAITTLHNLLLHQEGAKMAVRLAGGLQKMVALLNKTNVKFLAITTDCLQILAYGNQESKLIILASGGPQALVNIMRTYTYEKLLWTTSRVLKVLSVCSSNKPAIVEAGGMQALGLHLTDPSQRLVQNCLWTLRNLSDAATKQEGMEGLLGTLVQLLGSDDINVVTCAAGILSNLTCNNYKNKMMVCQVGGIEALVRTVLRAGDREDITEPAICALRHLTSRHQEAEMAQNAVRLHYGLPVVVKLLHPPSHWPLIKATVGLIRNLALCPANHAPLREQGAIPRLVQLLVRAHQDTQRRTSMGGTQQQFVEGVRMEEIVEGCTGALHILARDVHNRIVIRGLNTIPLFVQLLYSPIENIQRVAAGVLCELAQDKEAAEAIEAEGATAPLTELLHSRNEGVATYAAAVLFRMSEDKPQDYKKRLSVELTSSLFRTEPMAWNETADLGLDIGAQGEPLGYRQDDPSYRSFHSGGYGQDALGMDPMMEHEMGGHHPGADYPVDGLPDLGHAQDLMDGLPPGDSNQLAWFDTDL

[3] = target: full-length beta-Catenin (Uniprot ID P35222) (Homo sapiens (Human)) (UniProt P35222); assay: FP competition: displacement of 5FAM-TCF4(10-53) from full-length beta-catenin
Target sequence in this assay (P35222 whole entry, the tested form may be a part): as the sequence (P35222 whole entry, the tested form may be a part) above

[4] = target: full-length beta-Catenin (Uniprot ID P35222) (Homo sapiens (Human)) (UniProt P35222); assay: fluorescence polarization competition; full-length beta-catenin with 5FAM-labeled TCF4 residues 10-53 probe as competitor
Target sequence in this assay (P35222 whole entry, the tested form may be a part): as above

[5] = target: full-length beta-Catenin (Uniprot ID P35222) (Homo sapiens (Human)) (UniProt P35222); assay: fluorescence polarization competition; peptide titrated against 10 nM full-length beta-catenin + 10 nM 5FAM-TCF4(10-53)
Target sequence in this assay (P35222 2-781 limits assumed): as the sequence (P35222 2-781 limits assumed) above

[6] = target: full-length beta-Catenin (Uniprot ID P35222) (Homo sapiens (Human)) (UniProt P35222); assay: fluorescence polarization competition; 10 nM full-length beta-catenin + 10 nM 5FAM-TCF4(10-53) probe
Target sequence in this assay (P35222 whole entry, the tested form may be a part): as the sequence (P35222 whole entry, the tested form may be a part) above

Binder	IC50 [1] [nM]	EC50 [2] [nM]	further results
Ac-[αAllylPro]D[tBuAla][B5(5)]SDAAFL[PyrS2″][3Thi][Bta]Q-NH2 (staple 1-4, 4-11) [I-1209]	–	–	EC50 [3]: 479 nM
Ac-[αAllylPro]D[tBuAla][B5(5)]QDAAFL[PyrS2″][3Thi][Bta]Q-NH2 (staple 1-4, 4-11) [I-1211]	–	–	EC50 [3]: 115 nM
Ac-[αAllylPro]D[tBuAla][B5(5)]SDAAFN[PyrS2″][3Thi][Bta]Q-NH2 (staple 1-4, 4-11) [I-1208]	–	–	EC50 [3]: 349 nM
Ac-[αAllylPro]D[Cha][B5(5)]DDAAFS[PyrS2″][Phe(2-OMe)][Bta]S-NH2 (staple 1-4, 4-11) [I-1104]	10	10	–
Ac-[αAllylPro]DI[B5(4)]DDAAFN[S8][3Thi][Bta]H-NH2 (staple 1-4, 4-11) [I-556]	–	–	IC50 [4]: 20 nM; EC50 [1]: 20 nM
Ac-[αAllylPro]D[tBuAla][B5(5)]LDAAFN[PyrS2″][3Thi][Bta]Q-NH2 (staple 1-4, 4-11) [I-1212]	–	–	EC50 [3]: 8660 nM
Ac-[αAllylPro]D[tBuAla][B5(4)]DDAAFT[S8][Phe(2-Cl)][Bta]T-NH2 (staple 1-4, 4-11) [I-1090]	–	18	IC50 [5]: 18 nM
Ac-[αAllylPro][Dap](Ms)A[B5(4)]DEAAFN[S8]F[Bta]Q-NH2 (staple 1-4, 4-11) [I-534]	–	–	IC50 [4]: 5000 nM; EC50 [6]: 5000 nM
Ac-[αAllylPro]D[tBuAla][B5(4)]DEAAFT[S8][Phe(2-Cl)][Bta][dT]-NH2 (staple 1-4, 4-11; also: earlier-eluting isomer composition) [I-1093]	43	43	–
Ac-[αAllylPro]D[tBuAla][B5(5)]QDAAFN[PyrS2″][3Thi][Bta]Q-NH2 (staple 1-4, 4-11) [I-1210]	–	–	EC50 [3]: 56 nM
Ac-[αAllylPro]D[tBuAla][B5(5)]DDAAFS[PyrS2″][Phe(2-OMe)][Bta]S-NH2 (staple 1-4, 4-11) [I-1103]	15	15	–
Ac-[αAllylPro]D[tBuAla][B5(4)]DEAAFQ[S8]F[Bta]Q-NH2 (staple 1-4, 4-11) [I-544]	–	–	IC50 [4]: 24 nM; EC50 [1]: 24 nM
Ac-[αAllylPro]D[Cha][B5(5)]DDAAFL[PyrS2″][Phe(2-Cl)][Bta]S-NH2 (staple 1-4, 4-11) [I-1112]	40	40	–
Ac-[αAllylPro]D[Cha][B5(5)]DDAAFS[PyrS2″]F[Bta]S-NH2 (staple 1-4, 4-11) [I-1100]	16	16	–
Ac-[αAllylPro]DI[B5(4)]DDAAFN[S8][3Thi][Bta]Q-NH2 (staple 1-4, 4-11) [I-552]	–	–	IC50 [4]: 15.5 nM; EC50 [1]: 15.5 nM
Ac-[αAllylPro]DI[B5(4)]DDAAFN[S8][3Thi][Bta]Q-NH2 (staple 1-4, 4-11) [I-551]	–	–	IC50 [4]: 45 nM; EC50 [1]: 45 nM
Ac-[αAllylPro]D[tBuAla][B5(4)]DDAAFN[PyrS2″][Phe(2-Cl)][Bta]-Prolinol (staple 1-4, 4-11) [I-1084]	–	368	IC50 [5]: 368 nM
Ac-[αAllylPro]D[tBuAla][B5(4)]DDAAFT[S8][Phe(2-Cl)][Bta]Q-NH2 (staple 1-4, 4-11; also: earlier-eluting HPLC peak staple isomer composition) [I-1086]	–	12	IC50 [5]: 12 nM
Ac-[αAllylPro]DI[B5(4)]DDAAFN[S8][3Thi][Bta]H-NH2 (staple 1-4, 4-11) [I-555]	–	–	IC50 [4]: 41 nM; EC50 [1]: 41 nM
Ac-[αAllylPro]D[tBuAla][B5″]NDAAFN[PyrS2(3)][3Thi][Bta]Q-NH2 (staple 1-4, 4-11) [I-1206]	–	–	EC50 [3]: 32 nM
Ac-[αAllylPro]D[tBuAla][B5″]NDAAFL[PyrS2(3)][3Thi][Bta]Q-NH2 (staple 1-4, 4-11) [I-1207]	–	–	EC50 [3]: 40 nM
Ac-[αAllylPro]D[hLeu][B5(4)]DEAAFQ[S8]F[Bta]Q-NH2 (staple 1-4, 4-11) [I-545]	–	–	IC50 [4]: 21 nM; EC50 [1]: 21 nM
Ac-[αAllylPro]D[tBuAla][B5(5)][hSer]DAAFN[PyrS2″][3Thi][Bta]Q-NH2 (staple 1-4, 4-11) [I-1214]	–	–	EC50 [3]: 116 nM
Ac-[αAllylPro]DA[B5(4)]D[Dap](Ms)AAFN[S8]F[Bta]Q-NH2 (staple 1-4, 4-11) [I-533]	–	–	IC50 [4]: 155 nM; EC50 [6]: 155 nM
Ac-[αAllylPro]D[Cha][B5(5)]DDAAF[Cha][PyrS2″][Phe(2-Cl)][Bta]Q-NH2 (staple 1-4, 4-11) [I-1107]	18	18	–
Ac-[αAllylPro]D[tBuAla][B5(4)]DDAAFT[S8][Phe(2-Cl)][Bta][dT]-NH2 (staple 1-4, 4-11) [I-1092]	–	26	IC50 [5]: 26 nM
Ac-[αAllylPro]D[tBuAla][B5(4)]DEAAFT[S8][Phe(2-Cl)][Bta]Q-NH2 (staple 1-4, 4-11; also: later-eluting isomer composition) [I-1089]	–	12	IC50 [5]: 12 nM
Ac-[αAllylPro]D[tBuAla][B5(4)]DEAAFT[S8][Phe(2-Cl)][Bta]T-NH2 (staple 1-4, 4-11) [I-1091]	–	27	IC50 [5]: 27 nM

Second part, led by results:

IC50 [1] [nM]	EC50 [2] [nM]	Binder	further results
46	46	Ac-[αAllylPro]D[tBuAla][B5(5)]DEAAFT[S8][Phe(2-Cl)][Bta][dT]-NH2 (staple 1-4, 4-11; also: later-eluting isomer) [I-1094]	–
24	24	Ac-[αAllylPro]D[2Nal][B5(5)]DDAAFS[PyrS2″][Phe(2-Cl)][Bta]Q-NH2 (staple 1-4, 4-11) [I-1109]	–
18	18	Ac-[αAllylPro]D[1Nal][B5(5)]DDAAFS[PyrS2″][Phe(2-Cl)][Bta]Q-NH2 (staple 1-4, 4-11) [I-1108]	–
100	100	Ac-[αAllylPro]D[tBuAla][B5(5)]DEAAFL[S8][Phe(2-Cl)][Bta][dT]-NH2 (staple 1-4, 4-11) [I-1098]	–
16	16	Ac-[αAllylPro]D[Cha][B5(5)]DDAAFS[PyrS2″][Phe(2-F)][Bta]S-NH2 (staple 1-4, 4-11) [I-1102]	–
17	17	Ac-[αAllylPro]D[tBuAla][B5(5)]DEAAFL[S8][Phe(2-Cl)][Bta]Q-NH2 (staple 1-4, 4-11) [I-1096]	–
–	22	Ac-[αAllylPro]D[tBuAla][B5(4)]DEAAFT[S8][Phe(2-Cl)][Bta]Q-NH2 (staple 1-4, 4-11; also: earlier-eluting isomer composition) [I-1088]	IC50 [5]: 22 nM
14	14	Ac-[αAllylPro]D[tBuAla][B5(5)]DDAAFS[PyrS2″][Phe(2-F)][Bta]S-NH2 (staple 1-4, 4-11) [I-1101]	–
